Test results reported in publication PMC3299984 (Structure(London, England:1993), 2012).

Target: the molecule itself
Experiment: SEC

B1: Schistosoma mansoni peroxiredoxin I (thioredoxin peroxidase I), reduced (enzyme)
chain: MVLLPNRPAPEFKGQAVINGEFKEICLKDYRGKYVVLFFYPADFTFVCPTEIIAFSDQVEEFNSRNCQVIACSTDSQYSHLAWDNLDRKSGGLGHMKIPLLADRKQEISKAYGVFDEEDGNAFRGLFIIDPNGILRQITINDKPVGRSVDETLRLLDAFQFVEKHGEVCPVNWKRGQHGIKVNQK
- stoichiometry N: 10
